Reference: patent publication US12144869B2, “Anti-ROR1 antibody conjugates, compositions comprising anti ROR1 antibody conjugates, and methods of making and using anti-ROR1 antibody conjugates” (Sutro Biopharma, Inc., priority 2022, dated 2024)

Assays:
[1] = Differential scanning fluorimetry (protein thermal shift; TM1/TM2); assay type: physicochemical; details: Table 11; melting temperature of the Fab domain
Procedure: A protein thermal shift assay was carried out by mixing the protein to be assayed with an environmentally sensitive dye (SYPRO Orange, Life Technologies Cat #S-6650) in a phosphate buffered solution (PBS), and monitoring the fluorescence of the mixture in real time as it underwent controlled thermal denaturation. Protein solutions between 0.2-2 mg/mL were mixed at a 1-1 volumetric ratio with a 1-500 PBS-diluted solution of SYPRO Orange (SYPRO Orange stock dye is 5000× in DMSO). 10 μL aliquots of the protein-dye mixture were dispensed in quadruplicate in a 384-well microplate (Bio-Rad Cat #MSP-3852), and the plate was sealed with an optically clear sealing film (Bio-Rad Cat #MSB-1001) and placed in a 384-well plate real-time thermocycler (Bio-Rad CFX384 Real Time System). The protein-dye mixture was heated from […], at increments of 0.1° C. per cycle (˜1.5° C. per minute), allowing 3 seconds of equilibration at each temperature before taking a fluorescence measurement. At the end of the experiment, the transition melting temperatures (TM1 and TM2) were determined using the Bio-Rad CFX manager software. TM1 represents the melting temperature of the Fc domain. TM2 represents the melting temperature of the Fab domain.
For the thermal stability of an antibody, the first melting peak (Tm1) coincides with the unfolding of the CH2 domain (FC stability), while the second melting peak (Tm2) occurs upon unfolding of the Fab domain.

ROR1 or ROR2 = assay: ROR2 cross-reactivity ELISA (ROR1/ROR2 signal ratio); assay type: binding; details: Table 11; SP34 light chain
Procedure: Antibodies were tested for their ability to bind to either ROR1 or ROR2 via ELISA. Briefly, 2 μg/mL of ROR1 or ROR2 (Acro Biosystems) were coated to 384-well polystyrene plates for 1 hr at 30° C. in 0.1 M bicarbonate pH8.9 buffer before they were washed and blocked with 2% BSA in PBST (PBS, 0.1% Tween20) for 1 hr. Antibody variants were diluted to 2.5 μg/mL and further serially diluted 3-fold before 30 μL was applied to the ELISA plates for binding (1 hr at 30° C.). Antibody binding was detected via HRP-conjugated anti-human Fc antibodies (Jackson Immunoresearch) and detection with SuperSignal ELISA Pico Chemiluminescent Substrate (Pierce). Cross-reactivity was reported as a ratio of ROR1-ELISA signal over ROR2-ELISA signal at the highest dilution tested.

human ROR1-Fz = target: T1, human ROR1-Fz (Homo sapiens, UniProt Q01973); assay: Biacore off-rate and kinetic analysis, ROR1-Fz; assay type: binding; details: Table 11; SP34 light chain
T1 construct: Frizzled (Fz, residues 165-305); His6 (C); purchased Acro Biosystems; host or cells: HEK293
Procedure: (§1) Anti-Fc polyclonal antibodies were immobilized onto a CMS chip (GE Life Sciences) using amine coupling chemistry (from Amine Coupling Kit, GE Life Sciences). The immobilization steps were carried out at a flow rate of 25 μL/min in 1×HBS-EP+buffer (GE Life Sciences; 10× Stock diluted before use). The sensor surfaces were activated for 7 min with a mixture of NHS (0.05 M) and EDC (0.2 M). The Anti-Fc antibodies were injected over all 4 flow cells at a concentration of 25 ug/ml in 10 mM sodium acetate, pH 4.5, for 7 min. Ethanolamine (1 M, pH 8.5) was injected for 7 min to block any remaining activated groups. An average of 12,000 response units (RU) of capture antibody was immobilized on each flow cell.
(§2) Off-rate and kinetic binding experiments were performed at 25° C. using 1×HBS-EP+buffer. Test and control antibodies were injected over the anti-Fc surface at concentrations of 5-10 μg/mL for 12 seconds at a flow rate of 10 μL/min on flow cells 2, 3 and 4, followed by a buffer wash for 30 seconds at the same flow rate. Kinetic characterization of antibody samples was carried out with a range of antigen concentrations from 1-100 nM and 1 injection of 0 nM antigen (for example, 100, 50, 25, 6.25, 1.56 and 0 nM). After capturing ligand (antibody) on the anti-Fc surface, the analyte (hROR1, Fz or Kr domains, Acro Biosystems, Delaware) was bound for 180 seconds, followed by a 600 second dissociation phase at a flow rate of 50 μL/min. Between each ligand capture and analyte binding cycle, regeneration was carried out using 2 injections of 10 mM Glycine pH 2.0 for 30 seconds at 30 μL/min, followed by a 30 second buffer wash step.
(§3) The data was fit with the Biacore T200 Evaluation software, using a 1-1 Langmuir binding model. KD (affinity, nM) was determined as a ratio of the kinetic rate constants calculated from the fits of the association and dissociation phases.
(§4) For anti-CD3-LC-containing IgGs that had detectable ROR1-binding in ELISA (1944-A07 and 1987-C05 variants), those antibodies were further tested for binding by surface plasmon resonance (SPR). Binding kinetics were assessed to the ROR1-frizzled domain (hROR1-Fz) or the ROR1-extracellular domain (hROR1) for 1944-A07 and 1987-C05 variants, respectively. Briefly, anti-ROR1 antibodies were captured via anti-human Fc polyclonal antibodies immobilized to a CM5 chip, and ROR1 recombinant proteins were flowed across the surface to assess binding kinetics. hROR1 or hROR1-Fz domain (Acro Biosystems, Delaware) binding was tested at 100, 50, 25, 6.25, 1.5625 nM. The data was fit with the Biacore™ T200 Evaluation software, using a 1-1 Langmuir binding model. KD (affinity, nM) was determined as a ratio of the kinetic rate constants calculated from the fits of the association and dissociation phases.

[2] = target: T2, hROR1 (ROR1-extracellular domain) (Homo sapiens, UniProt Q01973); assay: Biacore off-rate and kinetic analysis, hROR1 extracellular domain; assay type: binding; details: Table 7; sample ROR1 ECD; 1987-C05 HC with different LCs
T2 construct: the ROR1-frizzled domain (hROR1-Fz) or the ROR1-extracellular domain (hROR1); purchased Acro Biosystems
Procedure: as §1, §2, §3, §4

Biacore human ROR1-Fz ka (human ROR1-Fz) [M⁻¹ s⁻¹] | Biacore human ROR1-Fz kd (human ROR1-Fz) [s⁻¹] | ka1 [2] [M⁻¹ s⁻¹] | kd1 [2] [s⁻¹] | Molecule | TM2 (° C.) [1] [°C] | ROR1/ROR2 ELISA ratio (ROR1 or ROR2)
186000 | 0.00064 | – | – | SRP2196-A07 (antibody, V domains shown) VH: EVQLVESGGGLVQPGGSLRLSCAASGFNITGYYIHWVRQAPGKGLEWVGQISPNSGSTYYADSVKGRFTISADTSKNTAYLQMSSLRAEDTAVYYCARDSRRYVRGWDYWGQGTLVTVSS VL: QAVVTQESALTTSPGETVTLTCRSSTGAVTTSNYANWVQEKPDHLFTGLIGGTNKRAPGVPARFSGSLIGDKAALTITGAQTEDEAIYFCALWYSNLWVFGGGTKLTVL | 74 | 16.3
131000 | 0.000401 | – | – | SRP2196-B01 (antibody, V domains shown) VH: EVQLVESGGGLVQPGGSLRLSCAASGFNITGYYIHWVRQAPGKGLEWVGQISPNSGYTYYADSVKGRFTISADTSKNTTYLQMNSLRAEDTAVYYCARDSRRYVRSWDYWGQGTLVTVSS VL: QAVVTQESALTTSPGETVTLTCRSSTGAVTTSNYANWVQEKPDHLFTGLIGGTNKRAPGVPARFSGSLIGDKAALTITGAQTEDEAIYFCALWYSNLWVFGGGTKLTVL | 75 | 17.2
124000 | 0.000945 | – | – | SRP2196-B03 (antibody, V domains shown) VH: EVQLVESGGGLAQPGGSLRLSCAASGFNITGYYIHWVRQAPGKGLEWVGYISPNSGATHYADSVKGRFTISADTSKNTAYLQMNSLRAEDTAVYYCARDSRRYVRPFDYWGQGTLVTVSS VL: QAVVTQESALTTSPGETVTLTCRSSTGAVTTSNYANWVQEKPDHLFTGLIGGTNKRAPGVPARFSGSLIGDKAALTITGAQTEDEAIYFCALWYSNLWVFGGGTKLTVL | 71 | 22.8
137000 | 0.000597 | – | – | SRP2196-B11 (antibody, V domains shown) VH: EVQLVESGGGLVQPGGSLRLSCAASGFNITGYYIHWVRQAPGRGLEWVGQISPNSGYTYYADSVKGRFTISADTSKNTAYLQMNSLRAEDTAVYYCARDSRRYIRSWDYWGQGTLVTVSS VL: QAVVTQESALTTSPGETVTLTCRSSTGAVTTSNYANWVQEKPDHLFTGLIGGTNKRAPGVPARFSGSLIGDKAALTITGAQTEDEAIYFCALWYSNLWVFGGGTKLTVL | 74 | 19.1
130000 | 0.000427 | – | – | SRP2196-B09 (antibody, V domains shown) VH: EVQLVESGGGLVQPEGSLRLSCAASGFNITEYYIHWVRQAPGKGLEWVGYISPNSGSTYYADSVKGRFTISADTSKNTAYLQMNSLRAEDTAVYYCARDSRRYVRSWDYWGQGTLVTVSS VL: QAVVTQESALTTSPGETVTLTCRSSTGAVTTSNYANWVQEKPDHLFTGLIGGTNKRAPGVPARFSGSLIGDKAALTITGAQTEDEAIYFCALWYSNLWVFGGGTKLTVL | 72 | 27.3
150000 | 0.000568 | – | – | SRP2196-A09 (antibody, V domains shown) VH: EVQLVESGGGLVQPGGSLRLSCAASGFNITGYYIHWVRQAPGKGLEWVGQISPNSGATHYADSVKGRFTISADTSKNTAYLQMNSLRAEDTAVYYCARDSRRYIRSWDYWGQGTLVTVSS VL: QAVVTQESALTTSPGETVTLTCRSSTGAVTTSNYANWVQEKPDHLFTGLIGGTNKRAPGVPARFSGSLIGDKAALTITGAQTEDEAIYFCALWYSNLWVFGGGTKLTVL | 75 | 20.1
– | – | 566000 | 0.000645 | 1987-C05 HC w/hUCHT1 LC3: HC of lead antibody 1987-C05 co-expressed with the LC of anti-CD3 antibody "hUCHT1-LC3" (antibody, V domains shown) VH: EVQLVESGGGLVQPGGSLRLSCAASGFNISDYDIHWVRQAPGKGLEWVGGIDPDDGSTDYADSVKGRFTISADTSKNTAYLQMNSLRAEDTAVYYCARDYGVFDYWGQGTLVTVSS VL: DIQMTQSPSTLSASVGDRVTITCRASQDIRNYLNWYQQKPGKAPKLLIYYTSRLHSGVPSRFSGSGSGTEYTLTISSLQPDDFATYYCQQGNTLPWTFGGGTKVEIK | – | –
